These are literature values, as cited in PMC5429092.

By Kd is commonly meant the equilibrium constant for the complex coming apart.

This data set concerns the target PP1 (Homo sapiens) (UniProt P62136). The data set is described as follows: ITC. A general note: Isothermal titration calorimetry measures the heat released or taken up as one component is titrated into another.
Sequence of UniProt P62136 (P62136 2-330): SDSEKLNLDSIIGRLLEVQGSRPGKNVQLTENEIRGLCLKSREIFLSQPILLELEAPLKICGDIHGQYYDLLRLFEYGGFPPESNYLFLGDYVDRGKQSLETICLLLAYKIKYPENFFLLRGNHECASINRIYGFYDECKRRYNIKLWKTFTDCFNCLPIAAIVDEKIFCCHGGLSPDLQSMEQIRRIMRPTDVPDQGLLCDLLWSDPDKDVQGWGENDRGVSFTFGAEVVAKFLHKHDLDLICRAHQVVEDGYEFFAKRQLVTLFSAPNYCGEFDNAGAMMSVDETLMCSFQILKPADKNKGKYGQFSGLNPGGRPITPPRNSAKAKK

As for PPP1R15A (from UniProt O75807), the Kd was 0.062 µM.
